Experimental data taken from US20200262877A1, “ION CHANNEL-BINDING PEPTIDES AND METHODS OF USE THEREOF” (priority 2017, published 2020).

Legend:
NR2B = target: T1, NR2B (Homo sapiens, UniProt Q13224); test: Ion channel panel (IonWorks Barracuda): NR2B; assay type: cell-based; conditions: 100% = no change, <100% = inhibition
T1 construct: host or cells: HEK293 or CHO
How it was run: (§1)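 Transfected HEK293 or CHO cells were exposed for at least 5 min to peptides at 200 nM and 20 μM final, tested in duplicate, in HEPES-buffered physiological saline. Activation was taken as peptide-plus-agonist current over control current ×100, and inhibition as 1 minus that ratio ×100. Each channel's control was its own reference compound.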

TRPA1 = target: T2, TRPA1 (Homo sapiens, UniProt O75762); test: Ion channel panel (IonWorks Barracuda): TRPA1; assay type: cell-based; conditions: 100% = no change, <100% = inhibition
T2 construct: host or cells: HEK293 or CHO
How it was run: as §1

NR2A = target: T3, NR2A (Homo sapiens, UniProt Q12879); test: Ion channel panel (IonWorks Barracuda): NR2A; assay type: cell-based; conditions: 100% = no change, <100% = inhibition
T3 construct: host or cells: HEK293 or CHO
How it was run: as §1

Nav1.7 = target: T4, Nav1.7 (Homo sapiens, UniProt Q15858); test: cell-based; assay type: cell-based; conditions: 100% = no change; for Activity of Nav1.7 with peptide, expressed as a percentage of the reference compound: peptide at 0.2 μM; for Activity of Nav1.7 with peptide (percentage of the reference compound): peptide at 20 μM
T4 construct: host or cells: HEK293 or CHO

GABA = test: Ion channel panel (IonWorks Barracuda): GABA; assay type: cell-based; conditions: 100% = no change, <100% = inhibition
How it was run: as §1

Kv1.3 = target: T5, Kv1.3 (Homo sapiens, UniProt P22001); test: cell-based; assay type: cell-based; conditions: 100% = no change, <100% = inhibition
T5 construct: host or cells: HEK293 or CHO
How it was run: as §1

Kv1.2 = target: T6, Kv1.2 (Homo sapiens, UniProt P16389); test: cell-based; assay type: cell-based; conditions: 100% = no change, <100% = inhibition
T6 construct: host or cells: HEK293 or CHO
How it was run: as §1

Kv1.1 = target: T7, Kv1.1 (Homo sapiens, UniProt Q09470); test: cell-based; assay type: cell-based; conditions: 100% = no change, <100% = inhibition
T7 construct: host or cells: HEK293 or CHO
How it was run: as §1

Kv2.1 = target: T8, Kv2.1 (Homo sapiens, UniProt Q14721); test: cell-based; conditions: 100% = no change, <100% = inhibition
T8 construct: host or cells: HEK293 or CHO
How it was run: as §1

Cav2.1 = target: T9, Cav2.1 (Homo sapiens, UniProt O00555); test: cell-based; conditions: 100% = no change, <100% = inhibition
T9 construct: host or cells: HEK293 or CHO
How it was run: as §1

Cav2.2 = target: T10, Cav2.2 (Homo sapiens, UniProt Q00975); test: cell-based; conditions: 100% = no change, <100% = inhibition
T10 construct: host or cells: HEK293 or CHO
How it was run: as §1

Kir2.1 = target: T11, Kir2.1 (Homo sapiens, UniProt P63252); test: Ion channel panel (IonWorks Barracuda): Kir2.1; assay type: cell-based; conditions: 100% = no change, <100% = inhibition
T11 construct: host or cells: HEK293 or CHO
How it was run: as §1

TRPV1 = target: T12, TRPV1 (Homo sapiens, UniProt Q8NER1); test: Ion channel panel (IonWorks Barracuda): TRPV1; assay type: cell-based; conditions: 100% = no change, <100% = inhibition
T12 construct: host or cells: HEK293 or CHO
How it was run: as §1

5HT3a = target: T13, 5HT3a (Homo sapiens, UniProt P46098); test: Ion channel panel (IonWorks Barracuda): 5HT3a; assay type: cell-based
T13 construct: host or cells: HEK293 or CHO
T13 sequence (P46098 whole entry, looked up): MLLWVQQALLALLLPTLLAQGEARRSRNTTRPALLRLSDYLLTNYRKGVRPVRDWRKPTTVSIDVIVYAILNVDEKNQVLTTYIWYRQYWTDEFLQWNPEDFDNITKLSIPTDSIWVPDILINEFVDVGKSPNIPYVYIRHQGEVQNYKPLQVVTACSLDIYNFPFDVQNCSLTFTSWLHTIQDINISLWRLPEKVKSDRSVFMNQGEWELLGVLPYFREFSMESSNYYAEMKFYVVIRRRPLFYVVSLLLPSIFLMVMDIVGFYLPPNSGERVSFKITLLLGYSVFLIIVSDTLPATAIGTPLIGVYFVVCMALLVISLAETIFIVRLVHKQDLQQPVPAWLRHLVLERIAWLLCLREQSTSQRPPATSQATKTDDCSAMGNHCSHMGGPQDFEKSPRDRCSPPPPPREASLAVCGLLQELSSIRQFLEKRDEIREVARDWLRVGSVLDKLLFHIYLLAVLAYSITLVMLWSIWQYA
How it was run: as §1

α3β4 = target: T14, α3β4 (Homo sapiens, UniProt P30926+P32297); test: Ion channel panel (IonWorks Barracuda): α3β4; assay type: cell-based; conditions: 100% = no change, <100% = inhibition
T14 construct: host or cells: HEK293 or CHO
How it was run: as §1

α4β2 = target: T15, α4β2 (Homo sapiens, UniProt P17787+P43681); test: Ion channel panel (IonWorks Barracuda): α4β2; assay type: cell-based; conditions: 100% = no change, <100% = inhibition
T15 construct: host or cells: HEK293 or CHO
How it was run: as §1

hERG = hERG (Homo sapiens, UniProt Q12809); test: in vitro; conditions: 100% = no change, <100% = inhibition
How it was run: as §1

Nav1.5 = Nav1.5 (Homo sapiens, UniProt Q14524); test: in vitro; conditions: 100% = no change; for Activity of Nav1.5 with peptide, expressed as a percentage of the reference compound: peptide at 0.2 μM; for Activity of Nav1.5 with peptide (percentage of the reference compound): peptide at 20 μM
How it was run: as §1

[1] = first of two Nav1.7 columns (probably TP1)
[2] = second of two Nav1.7 columns (probably TP2)
[3] = first of two Nav1.5 columns (probably TP1)
[4] = second of two Nav1.5 columns (probably TP2)

T4 sequence (Q15858 whole entry): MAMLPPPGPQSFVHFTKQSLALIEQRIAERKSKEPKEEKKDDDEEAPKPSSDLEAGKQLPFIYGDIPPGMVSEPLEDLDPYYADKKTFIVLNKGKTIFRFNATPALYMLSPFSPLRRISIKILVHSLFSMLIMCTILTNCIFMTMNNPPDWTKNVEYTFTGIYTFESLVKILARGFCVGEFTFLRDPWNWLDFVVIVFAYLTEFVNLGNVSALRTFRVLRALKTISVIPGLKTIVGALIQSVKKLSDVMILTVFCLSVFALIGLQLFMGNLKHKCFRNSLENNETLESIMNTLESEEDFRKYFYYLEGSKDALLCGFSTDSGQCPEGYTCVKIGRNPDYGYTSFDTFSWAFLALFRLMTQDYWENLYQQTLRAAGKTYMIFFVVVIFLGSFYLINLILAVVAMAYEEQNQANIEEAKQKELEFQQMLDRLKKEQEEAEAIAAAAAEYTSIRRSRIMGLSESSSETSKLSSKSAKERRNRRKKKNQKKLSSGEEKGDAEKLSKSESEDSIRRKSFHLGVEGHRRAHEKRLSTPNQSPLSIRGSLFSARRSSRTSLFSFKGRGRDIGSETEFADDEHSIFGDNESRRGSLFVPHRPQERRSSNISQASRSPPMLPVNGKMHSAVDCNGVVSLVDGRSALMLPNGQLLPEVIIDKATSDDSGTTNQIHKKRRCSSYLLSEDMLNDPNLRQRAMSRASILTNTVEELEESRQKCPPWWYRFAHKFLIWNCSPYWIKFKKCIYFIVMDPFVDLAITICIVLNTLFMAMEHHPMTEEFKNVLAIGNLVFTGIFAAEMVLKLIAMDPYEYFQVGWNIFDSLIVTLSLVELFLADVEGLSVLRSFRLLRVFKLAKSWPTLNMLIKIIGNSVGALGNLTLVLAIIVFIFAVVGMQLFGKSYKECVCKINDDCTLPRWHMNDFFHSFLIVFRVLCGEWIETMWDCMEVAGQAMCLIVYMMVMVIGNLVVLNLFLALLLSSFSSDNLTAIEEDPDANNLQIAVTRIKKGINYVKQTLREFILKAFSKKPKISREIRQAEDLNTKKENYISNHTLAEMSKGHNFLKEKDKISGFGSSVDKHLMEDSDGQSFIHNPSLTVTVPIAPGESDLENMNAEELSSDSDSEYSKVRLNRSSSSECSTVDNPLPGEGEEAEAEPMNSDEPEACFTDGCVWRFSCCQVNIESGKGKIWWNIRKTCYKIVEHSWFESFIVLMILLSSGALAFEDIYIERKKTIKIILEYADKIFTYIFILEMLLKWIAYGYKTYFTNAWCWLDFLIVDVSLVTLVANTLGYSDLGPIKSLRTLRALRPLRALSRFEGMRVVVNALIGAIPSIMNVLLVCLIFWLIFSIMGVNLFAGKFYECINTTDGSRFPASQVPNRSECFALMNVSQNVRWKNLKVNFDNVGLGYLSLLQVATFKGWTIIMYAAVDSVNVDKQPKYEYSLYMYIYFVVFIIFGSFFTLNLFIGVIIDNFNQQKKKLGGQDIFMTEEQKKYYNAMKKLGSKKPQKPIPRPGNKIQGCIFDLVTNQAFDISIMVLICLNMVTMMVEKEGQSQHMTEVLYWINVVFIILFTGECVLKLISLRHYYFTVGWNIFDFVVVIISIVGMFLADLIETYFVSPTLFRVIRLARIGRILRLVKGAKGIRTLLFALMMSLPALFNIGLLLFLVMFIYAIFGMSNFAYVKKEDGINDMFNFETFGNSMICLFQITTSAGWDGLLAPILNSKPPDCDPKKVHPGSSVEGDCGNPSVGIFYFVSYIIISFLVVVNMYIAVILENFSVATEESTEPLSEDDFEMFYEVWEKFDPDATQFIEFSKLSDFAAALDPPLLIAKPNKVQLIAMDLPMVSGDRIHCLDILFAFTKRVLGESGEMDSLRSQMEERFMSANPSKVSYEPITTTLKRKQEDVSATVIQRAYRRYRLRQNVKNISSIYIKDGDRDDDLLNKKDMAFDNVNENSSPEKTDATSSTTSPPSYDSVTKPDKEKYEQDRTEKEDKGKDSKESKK
Sequence of Nav1.5 (Q14524 whole entry): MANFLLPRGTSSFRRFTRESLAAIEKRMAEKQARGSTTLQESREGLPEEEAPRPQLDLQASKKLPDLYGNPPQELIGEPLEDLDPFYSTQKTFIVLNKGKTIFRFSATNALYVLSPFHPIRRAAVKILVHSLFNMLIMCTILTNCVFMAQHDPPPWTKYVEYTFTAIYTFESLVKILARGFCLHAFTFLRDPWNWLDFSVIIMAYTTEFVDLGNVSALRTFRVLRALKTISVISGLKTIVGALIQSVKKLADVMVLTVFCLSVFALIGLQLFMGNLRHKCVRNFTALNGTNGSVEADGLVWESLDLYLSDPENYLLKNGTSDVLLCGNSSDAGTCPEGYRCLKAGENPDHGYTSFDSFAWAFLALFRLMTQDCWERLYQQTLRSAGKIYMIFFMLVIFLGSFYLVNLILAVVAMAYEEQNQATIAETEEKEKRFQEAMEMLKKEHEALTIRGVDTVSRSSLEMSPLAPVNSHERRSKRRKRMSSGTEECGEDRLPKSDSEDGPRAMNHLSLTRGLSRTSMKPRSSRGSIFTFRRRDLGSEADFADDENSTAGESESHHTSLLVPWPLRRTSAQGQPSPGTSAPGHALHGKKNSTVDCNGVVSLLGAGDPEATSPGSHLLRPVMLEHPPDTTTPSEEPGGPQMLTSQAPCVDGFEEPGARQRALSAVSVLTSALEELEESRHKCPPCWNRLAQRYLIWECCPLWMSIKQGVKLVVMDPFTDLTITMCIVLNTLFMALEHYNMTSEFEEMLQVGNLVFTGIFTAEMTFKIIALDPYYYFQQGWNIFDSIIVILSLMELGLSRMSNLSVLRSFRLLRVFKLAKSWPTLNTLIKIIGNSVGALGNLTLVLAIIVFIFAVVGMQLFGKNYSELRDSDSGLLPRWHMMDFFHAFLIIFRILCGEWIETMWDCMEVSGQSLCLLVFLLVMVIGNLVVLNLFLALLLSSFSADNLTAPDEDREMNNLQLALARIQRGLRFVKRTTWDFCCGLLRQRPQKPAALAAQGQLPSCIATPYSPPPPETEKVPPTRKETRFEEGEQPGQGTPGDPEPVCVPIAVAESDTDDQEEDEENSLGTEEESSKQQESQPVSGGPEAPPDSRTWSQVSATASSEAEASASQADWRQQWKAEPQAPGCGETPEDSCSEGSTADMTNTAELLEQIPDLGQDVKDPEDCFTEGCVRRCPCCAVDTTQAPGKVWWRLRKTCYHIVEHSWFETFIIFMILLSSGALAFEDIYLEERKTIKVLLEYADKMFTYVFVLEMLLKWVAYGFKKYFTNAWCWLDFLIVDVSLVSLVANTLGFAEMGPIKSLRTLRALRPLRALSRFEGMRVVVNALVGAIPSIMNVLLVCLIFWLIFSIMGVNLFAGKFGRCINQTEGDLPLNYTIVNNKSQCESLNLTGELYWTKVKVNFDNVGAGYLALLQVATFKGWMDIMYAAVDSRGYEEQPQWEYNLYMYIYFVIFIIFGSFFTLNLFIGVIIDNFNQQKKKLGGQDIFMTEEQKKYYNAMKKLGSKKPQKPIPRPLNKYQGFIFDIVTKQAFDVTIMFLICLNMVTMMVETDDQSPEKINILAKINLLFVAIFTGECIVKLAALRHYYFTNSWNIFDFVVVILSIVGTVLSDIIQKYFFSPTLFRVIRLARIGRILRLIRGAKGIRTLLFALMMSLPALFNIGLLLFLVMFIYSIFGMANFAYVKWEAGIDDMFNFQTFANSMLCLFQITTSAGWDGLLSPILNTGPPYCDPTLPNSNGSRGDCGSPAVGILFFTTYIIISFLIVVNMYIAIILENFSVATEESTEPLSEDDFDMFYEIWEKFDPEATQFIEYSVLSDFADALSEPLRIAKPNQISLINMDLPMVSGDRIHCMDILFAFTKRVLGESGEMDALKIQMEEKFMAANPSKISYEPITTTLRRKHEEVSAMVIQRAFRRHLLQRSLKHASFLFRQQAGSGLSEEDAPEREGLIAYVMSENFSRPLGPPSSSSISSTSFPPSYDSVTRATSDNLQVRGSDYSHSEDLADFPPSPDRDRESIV
T11 sequence (P63252 whole entry): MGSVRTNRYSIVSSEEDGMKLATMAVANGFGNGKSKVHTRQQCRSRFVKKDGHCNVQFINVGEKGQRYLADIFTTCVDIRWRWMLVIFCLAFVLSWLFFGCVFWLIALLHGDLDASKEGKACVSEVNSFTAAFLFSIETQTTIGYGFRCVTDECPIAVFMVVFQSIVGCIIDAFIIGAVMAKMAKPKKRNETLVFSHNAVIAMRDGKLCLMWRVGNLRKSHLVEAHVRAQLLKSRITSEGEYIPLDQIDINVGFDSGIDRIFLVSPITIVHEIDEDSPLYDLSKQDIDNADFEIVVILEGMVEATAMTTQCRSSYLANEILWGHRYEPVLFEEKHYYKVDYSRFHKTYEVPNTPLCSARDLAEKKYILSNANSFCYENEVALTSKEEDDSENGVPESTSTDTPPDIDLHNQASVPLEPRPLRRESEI
T5 sequence (P22001 whole entry): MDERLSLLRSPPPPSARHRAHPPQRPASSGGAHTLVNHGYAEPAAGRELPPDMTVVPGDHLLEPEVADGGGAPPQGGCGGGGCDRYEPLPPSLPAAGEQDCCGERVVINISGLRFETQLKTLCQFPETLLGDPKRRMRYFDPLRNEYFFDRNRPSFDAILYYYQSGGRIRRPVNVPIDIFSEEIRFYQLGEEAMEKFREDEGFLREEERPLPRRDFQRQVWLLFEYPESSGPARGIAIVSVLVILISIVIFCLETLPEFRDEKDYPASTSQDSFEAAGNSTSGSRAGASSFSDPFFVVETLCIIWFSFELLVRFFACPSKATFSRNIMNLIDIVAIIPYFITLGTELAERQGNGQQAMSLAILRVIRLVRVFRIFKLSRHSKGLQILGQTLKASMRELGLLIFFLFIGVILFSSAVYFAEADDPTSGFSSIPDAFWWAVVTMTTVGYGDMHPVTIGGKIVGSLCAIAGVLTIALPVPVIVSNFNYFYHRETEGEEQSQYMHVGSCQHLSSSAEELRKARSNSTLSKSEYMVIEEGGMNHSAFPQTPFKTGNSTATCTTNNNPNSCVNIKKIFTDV

Question: Which “Activity of NR2B with peptide, expressed as a percentage of the reference compound” value (NR2B; peptide at 0.2 μM) does the source give for “21 (GSAEIIRCSGTRECYAPCQKLTGCLNAKCMNKACKCYGCV) [compound 21]” here?
Answer: Its value is 113%.

Question: What about the “Activity of NR2B with peptide (percentage of the reference compound)” value (NR2B; peptide at 20 μM) of the same substance?
Answer: Its value is 105%.

Question: And the “Activity of TRPA1 with peptide, expressed as a percentage of the reference compound” value (TRPA1; peptide at 0.2 μM)?
Answer: Its value is 119%.

Question: And the “Activity of TRPA1 with peptide (percentage of the reference compound)” value (TRPA1; peptide at 20 μM)?
Answer: Its value is 95%.

Question: And the “Activity of NR2A with peptide, expressed as a percentage of the reference compound” value (NR2A; peptide at 0.2 μM)?
Answer: The value was 105%.

Question: What about the “Activity of NR2A with peptide (percentage of the reference compound)” value (NR2A; peptide at 20 μM) of the same substance?
Answer: Its value is 103%.

Question: And the “Activity of Nav1.7 with peptide, expressed as a percentage of the reference compound” value (Nav1.7; [1])?
Answer: Its value is 112%.

Question: And the “Activity of Nav1.7 with peptide, expressed as a percentage of the reference compound” value (Nav1.7; [2])?
Answer: Its value is 120%.

Question: And the “Activity of Nav1.7 with peptide (percentage of the reference compound)” value (Nav1.7; [1])?
Answer: Its value is 105%.

Question: What about the “Activity of Nav1.7 with peptide (percentage of the reference compound)” value (Nav1.7; [2]) of the same substance?
Answer: Its value is 123%.

Question: What about the “Activity of GABA with peptide, expressed as a percentage of the reference compound” value (GABA; peptide at 0.2 μM) of the same substance?
Answer: The value was 111%.

Question: What about the “Activity of GABA with peptide (percentage of the reference compound)” value (GABA; peptide at 20 μM) of the same substance?
Answer: The value was 123%.

Question: What about the “Activity of Kv1.3 with peptide, expressed as a percentage of the reference compound” value (Kv1.3; peptide at 0.2 μM) of the same substance?
Answer: The value was 65%.

Question: And the “Activity of Kv1.3 with peptide (percentage of the reference compound)” value (Kv1.3; peptide at 20 μM)?
Answer: Its value is 5%.

Question: And the “Activity of Kv1.2 with peptide, expressed as a percentage of the reference compound” value (Kv1.2; peptide at 0.2 μM)?
Answer: The value was 52%.

Question: And the “Activity of Kv1.2 with peptide (percentage of the reference compound)” value (Kv1.2; peptide at 20 μM)?
Answer: The value was 36%.

Question: And the “Activity of Kv1.1 with peptide, expressed as a percentage of the reference compound” value (Kv1.1; peptide at 0.2 μM)?
Answer: The value was 106%.

Question: And the “Activity of Kv1.1 with peptide (percentage of the reference compound)” value (Kv1.1; peptide at 20 μM)?
Answer: Its value is 98%.

Question: And the “Activity of Kv2.1 with peptide, expressed as a percentage of the reference compound” value (Kv2.1; peptide at 0.2 μM)?
Answer: The value was 110%.

Question: And the “Activity of Kv2.1 with peptide (percentage of the reference compound)” value (Kv2.1; peptide at 20 μM)?
Answer: Its value is 108%.

Question: And the “Activity of Cav2.1 with peptide, expressed as a percentage of the reference compound” value (Cav2.1; peptide at 0.2 μM)?
Answer: The value was 103%.

Question: What about the “Activity of Cav2.1 with peptide (percentage of the reference compound)” value (Cav2.1; peptide at 20 μM) of the same substance?
Answer: The value was 106%.

Question: What about the “Activity of Cav2.2 with peptide, expressed as a percentage of the reference compound” value (Cav2.2; peptide at 0.2 μM) of the same substance?
Answer: The value was 98%.

Question: What about the “Activity of Cav2.2 with peptide (percentage of the reference compound)” value (Cav2.2; peptide at 20 μM) of the same substance?
Answer: Its value is 105%.

Question: What about the “Activity of Kir2.1 with peptide, expressed as a percentage of the reference compound” value (Kir2.1; peptide at 0.2 μM) of the same substance?
Answer: Its value is 105%.

Question: What about the “Activity of Kir2.1 with peptide (percentage of the reference compound)” value (Kir2.1; peptide at 20 μM) of the same substance?
Answer: Its value is 101%.

Question: And the “Activity of TRPV1 with peptide, expressed as a percentage of the reference compound” value (TRPV1; peptide at 0.2 μM)?
Answer: Its value is 106%.

Question: What about the “Activity of TRPV1 with peptide (percentage of the reference compound)” value (TRPV1; peptide at 20 μM) of the same substance?
Answer: Its value is 86%.

Question: What about the “Activity of 5HT3a with peptide (percentage of the reference compound)” value (5HT3a) of the same substance?
Answer: The value was 91%.

Question: And the “Activity of 5HT3a with peptide, expressed as a percentage of the reference compound” value (5HT3a)?
Answer: The value was 87%.

Question: And the “Activity of a3b4 with peptide, expressed as a percentage of the reference compound” value (α3β4; peptide at 0.2 μM)?
Answer: The value was 102%.

Question: And the “Activity of a3b4 with peptide (percentage of the reference compound)” value (α3β4; peptide at 20 μM)?
Answer: Its value is 93%.

Question: What about the “Activity of a4b2 with peptide, expressed as a percentage of the reference compound” value (α4β2; peptide at 0.2 μM) of the same substance?
Answer: Its value is 102%.

Question: And the “Activity of a4b2 with peptide (percentage of the reference compound)” value (α4β2; peptide at 20 μM)?
Answer: Its value is 85%.

Question: And the “Activity of hERG with peptide, expressed as a percentage of the reference compound” value (hERG; peptide at 0.2 μM)?
Answer: The value was 109%.

Question: And the “Activity of hERG with peptide (percentage of the reference compound)” value (hERG; peptide at 20 μM)?
Answer: Its value is 72%.

Question: And the “Activity of Nav1.5 with peptide, expressed as a percentage of the reference compound” value (Nav1.5; [3])?
Answer: The value was 108%.

Question: And the “Activity of Nav1.5 with peptide, expressed as a percentage of the reference compound” value (Nav1.5; [4])?
Answer: The value was 105%.

Question: And the “Activity of Nav1.5 with peptide (percentage of the reference compound)” value (Nav1.5; [3])?
Answer: Its value is 96%.

Question: What about the “Activity of Nav1.5 with peptide (percentage of the reference compound)” value (Nav1.5; [4]) of the same substance?
Answer: The value was 91%.
